Assay results taken from patent publication US20250235545A1, “POLYPEPTIDE CONJUGATE AND USE THEREOF” (SHANGHAI CHIXI BIOMEDICAL TECHNOLOGY CO., LTD, priority 2024, published 2025).
Values after ≈ are worked out from the molar mass of the structure shown. Read-outs that look alike come from different tables or passages of the source. Where a SMILES comes first, the peptide text is derived from it. The star is where a group is joined. NEt(2-(20S-CPT-7-yl)ethyl) = CCN(CCc1c2c(nc3ccccc13)-c1cc3c(c(=O)n1C2)COC(=O)[C@]3(O)CC)*; X1 = CC[C@@]1(O)C(=O)OCc2c1cc1n(c2=O)Cc2c-1nc1ccccc1c2CCN(C1CCC1)*; X3 = CC[C@@]1(O)C(=O)OCc2c1cc1n(c2=O)Cc2c-1nc1ccccc1c2CCN(C1CC1)*; X7 = CC[C@@]1(O)C(=O)OCc2c1cc1n(c2=O)Cc2c-1nc1ccccc1c2CCN(C)*; Propanoyl(3-maleimido) = O=C1C=CC(=O)N1CCC(=O)*; PEG6 = NCCOCCOCCOCCOCCOCCOCCC(=O)O

Experiments:
[1] = tested on: sarcoma SJSA-1 tumor model; conditions: Table 2
Description: Test objective: To investigate the antitumor efficacy of the above compounds in an animal tumor model of sarcoma SJSA-1.
(§1) Test drug: Polypeptide conjugate, Irinotecan, Belotecan and normal saline control group.
(§2) Test animals: 6-8 weeks old BALB/c mice, all female.
(§3) SJSA-1 cells were purchased from ATCC and cultured in a DMEM medium containing 10% fetal bovine serum at 37° C. in 5% CO2. Passaging was performed every three days, and cells within 15 generations were used. 2×10^7 corresponding cells were injected into right chests of nude mice subcutaneously. After a volume of the tumors reached at least 100 mm^3, the mice were grouped randomly, with three mice in each group. Then treatment was started, and the day when the treatment was started was the first day. […] The control group was administered with normal saline. Administration was performed once a week for three weeks.
as §3

[2] = tested on: colo320 colorectal cancer tumor model
Description: Test objective: To investigate the antitumor efficacy of the above compounds in an animal tumor model of colo320 colorectal cancer.
as §1, §2
as §3, with “Passaging” for “SJSA-1 cells were purchased from ATCC and cultured in a DMEM medium containing 10% fetal bovine serum at 37° C. in 5% CO2. Passaging”, “used. 7.5×10^6” for “used. 2×10^7”, “least 120” for “least 100”, “for four” for “for three”

[3] = MTD determination in mice (Examples 27, 36, 44); type: in vivo; conditions: female, mouse, in vivo; mice, monitored for 14 d; Table 4
Text: Test animals: 6-8 weeks old mice, all female; mice were grouped randomly, with six mice in each group, administered with drugs at different concentration gradients separately and monitored for 14 d. A mouse was euthanized at a loss of 20% of its initial weight and deemed to have died of poisoning.

[4] = Tumor homogenate activation efficiency, ovarian cancer tissue (Examples 28, 37); type: in vitro ADME; conditions: pH 5.0, 37° C., 2 h; Table 5
Description: (§4) Buffer preparation: 50 mM PH buffer (MES), 250 mM NaCl, pH adjusted to 5.0 with 0.5 M of sodium hydroxide.
(§5) The polypeptide conjugate was prepared into a 1 mg/ml solution with pH 5.0 buffer, 100 μg of tumor tissue homogenate was added, (the tumor tissue homogenate was the homogenate of tumor tissues prepared with a Jingxin F6/10 handheld homogenizer), and the solution was placed at 37° C. for 2 h. The tumor tissue homogenate could effectively activate the polypeptide conjugate and release Belotecan, and the activation efficiencies of the drugs in tumor tissues were compared by high-performance liquid chromatography (HPLC) allowing determination of a decrease in the compounds and an increase in Belotecan:
(§6) Release percentage=peak area of Belotecan/total peak area of Belotecan and all other Belotecan-containing compounds
as §5, with “HPLC” for “high-performance liquid chromatography (HPLC)”, “Belotecan: […]” for “Belotecan:”

[5] = Tumor homogenate activation efficiency, sarcoma tissue (Examples 28, 37); type: in vitro ADME; conditions: pH 5.0, 37° C., 2 h; Table 5
Description: as §4, §5, §6
as §5, with “HPLC” for “high-performance liquid chromatography (HPLC)”, “Belotecan: […]” for “Belotecan:”

[6] = Tumor homogenate activation efficiency, breast cancer tissue (Examples 28, 37); type: in vitro ADME; conditions: pH 5.0, 37° C., 2 h; Table 5
Description: as §4, §5, §6
as §5, with “HPLC” for “high-performance liquid chromatography (HPLC)”, “Belotecan: […]” for “Belotecan:”

[7] = Tumor homogenate activation efficiency, non-small cell lung cancer tissue (Examples 28, 37); type: in vitro ADME; conditions: pH 5.0, 37° C., 2 h; Table 5
Description: as §4, §5, §6
as §5, with “HPLC” for “high-performance liquid chromatography (HPLC)”, “Belotecan: […]” for “Belotecan:”

[8] = Tumor homogenate activation efficiency, small cell lung cancer tissue (Example 28); type: in vitro ADME; conditions: pH 5.0, 37° C., 2 h; Table 5
Description: as §4, §5, §6

[9] = Homogenate activation efficiency, heart tissue (Examples 28, 37); type: in vitro ADME; conditions: pH 5.0, 37° C., 2 h; Table 5
A2780 (ovarian cancer) = assay: cells; type: cell-based; conditions: CCK8, 48 h; Table 1
Description: (§7) Different types of cells were cultured with complete media (RPMI1640 (DMEM high sugar medium)+10% fetal bovine serum+1XP/S+sodium pyruvate 1 mM solution) in an incubator at 37° C. and 5% CO2 until the cells grew to a sufficient number, and the cells were collected, centrifuged at 1,000 g for 5 min, resuspended with an appropriate volume of a 10% RMPI1640 (DMEM high sugar medium) medium and counted. In a 96-well culture plate, 100 μL of cell culture fluid containing different concentrations of drugs was added, control wells (0.1% DMSO) with only corresponding drug solvents without drugs, as well as blank wells (Blank) with only the medium but without cells were set, and three parallel wells were set in each group. After that, the cells after cell counting were inoculated onto 96-well culture plates, with 100 μL of cell suspension per well, and an inoculation concentration of the cells was 5,000 cells (100 μL)/well. The plates were then cultured in a CO2 (5%) incubator at 37° C. for 48 h. After 48 h, 10 μL of a cell proliferation staining reagent (CCK8) was added to each well, the plates were incubated in a cell incubator for around 2 h, and an absorbance at 450 nm was detected.
(§8) Cell survival rates and median inhibitory concentrations of the drugs on the cells were calculated.
as §7, with “serum+1×P/S+sodium” for “serum+1XP/S+sodium”, “adjusted to an appropriate density.” for “counted.”
(§9) Cell survival rates and median inhibitory concentrations (IC50) of the drugs on the cells were calculated.

[10] = tested on: A549 (non-small cell lung cancer); assay: cells; type: cell-based; conditions: CCK8, 48 h; Table 1
Description: as §7, §8
as §7, with “serum+1×P/S+sodium” for “serum+1XP/S+sodium”, “adjusted to an appropriate density.” for “counted.”
as §9

SJSA-1 (sarcoma tissue) = assay: cells; type: cell-based; conditions: CCK8, 48 h; Table 1
Description: as §7, §8
as §7, with “serum+1×P/S+sodium” for “serum+1XP/S+sodium”, “adjusted to an appropriate density.” for “counted.”
as §9

[11] = tested on: SKBR3 (breast cancer tissue); assay: cells; type: cell-based; conditions: CCK8, 48 h; Table 1
Description: as §7, §8
as §7, with “serum+1×P/S+sodium” for “serum+1XP/S+sodium”, “adjusted to an appropriate density.” for “counted.”
as §9

[12] = 45 mg/kg once a week for three weeks
[13] = 45 mg/kg once a week for four weeks, Table 3
[14] = Table 14 (Example 43), dose 45 mg/kg, once a week for four weeks, BALB/c mice
[15] = 15 mg/kg once a week for three weeks
[16] = 15 mg/kg once a week for four weeks, Table 3
[17] = Table 13 (Example 42), dose 45 mg/kg, once a week for four weeks, BALB/c mice

SMILES | Mouse weight (%) [1, 12] | Mouse weight (%) [2, 13] | colo320 (colorectal cancer cell) growth rate (%) [2, 13] | colo320 (colorectal cancer cell) mean tumor volume (mm^3) [2, 13] | MTD at 14 d [3] | Percentage of release efficiency (%) Ovarian cancer tissue (A2780) [4] | Percentage of release efficiency (%) Sarcoma tissue (SJSA1) [5] | Percentage of release efficiency (%) Breast cancer tissue (SKBR3) [6] | Percentage of release efficiency (%) Non-small cell lung cancer tissue (A549) [7] | Percentage of release efficiency (%) Small cell lung cancer tissue (NCI-H841) [8] | Percentage of release efficiency (%) Heart tissue [9] | IC50 A2780 (ovarian cancer) (A2780 (ovarian cancer)) | IC50 A549 (non-small cell lung cancer) [10] | IC50 SJSA-1 (sarcoma tissue) (SJSA-1 (sarcoma tissue)) | IC50 SKBR3 (breast cancer tissue) [11] | Mouse weight (%) [1, 15] | Mouse weight (%) [2, 16] | also measured
CCN(CCc1c2c(nc3ccccc13)-c1cc3c(c(=O)n1C2)COC(=O)[C@]3(O)CC)C(=O)CNC(=O)[C@H](CC(N)=O)NC(=O)[C@H](C)NC(=O)CNC(=O)CCOCCOCCOCCOCCOCCOCCNC(=O)CCN1C(=O)C=CC1=O [MI-6PEG-GANG-D2] ({Propanoyl(3-maleimido)-PEG6}-GANG-{NEt(2-(20S-CPT-7-yl)ethyl)}) | +18% | +39% | 450.72% | 499.2 mm^3 | 200 mg/kg | 69.9% | 88.4% | 68.8% | 65.9% | 63.1% | 1.7% | – | – | – | – | – | – | SJSA-1 (sarcoma tissue) mean tumor volume (mm^3) [1, 12]: 1065.2 mm^3; SJSA-1 (sarcoma) Growth rate (%) [1, 12]: 918.28%; Mouse weight (%) [2, 14]: +39%; colo320 (colorectal cancer cell) growth rate (%) [2, 14]: 450.72%; colo320 (colorectal cancer cell) mean tumor volume (mm^3) [2, 14]: 499.2 mm^3
CC[C@@]1(O)C(=O)OCc2c1cc1n(c2=O)Cc2c-1nc1ccccc1c2CCN(C(=O)CNC(=O)[C@H](Cc1ccccc1)NC(=O)CNC(=O)CNC(=O)CCOCCOCCOCCOCCOCCOCCNC(=O)CCN1C(=O)C=CC1=O)C1CCC1 [MI-6PEG-GGFG-D7] ({Propanoyl(3-maleimido)-PEG6}-GGFG-X1) | +27% | +20% | – | – | – | 73.6% | 69.7% | 72.7% | 75.2% | 76.4% | 2.9% | 1.68 µg/mL (≈ 1.34 µM) | 1.32 µg/mL (≈ 1.06 µM) | 1.28 µg/mL (≈ 1.02 µM) | 2.40 µg/mL (≈ 1.92 µM) | +24% | +28% | –
CC[C@@]1(O)C(=O)OCc2c1cc1n(c2=O)Cc2c-1nc1ccccc1c2CCN(C(=O)CNC(=O)[C@H](Cc1ccccc1)NC(=O)CNC(=O)CNC(=O)CCOCCOCCOCCOCCOCCOCCNC(=O)CCN1C(=O)C=CC1=O)C1CC1 [MI-6PEG-GGFG-D6] ({Propanoyl(3-maleimido)-PEG6}-GGFG-X3) | +2% | +19% | – | – | – | 66.3% | 80.7% | 67.1% | 83.7% | 72.1% | 2.4% | 1.19 µg/mL (≈ 0.963 µM) | 1.31 µg/mL (≈ 1.06 µM) | 0.73 µg/mL (≈ 0.59 µM) | 2.30 µg/mL (≈ 1.86 µM) | +28% | +29% | –
CC[C@@]1(O)C(=O)OCc2c1cc1n(c2=O)Cc2c-1nc1ccccc1c2CCN(C)C(=O)CNC(=O)[C@H](Cc1ccccc1)NC(=O)CNC(=O)CNC(=O)CCOCCOCCOCCOCCOCCOCCNC(=O)CCN1C(=O)C=CC1=O [MI-6PEG-GGFG-D1] ({Propanoyl(3-maleimido)-PEG6}-GGFG-X7) | – | +19% | 605.35% | 671.3 mm^3 | 250 mg/kg | 67.2% | 81.5% | 74.8% | 71.7% | 66.3% | 1.7% | 6.84 µg/mL (≈ 5.65 µM) | 10.78 µg/mL (≈ 8.91 µM) | 11.79 µg/mL (≈ 9.74 µM) | 16.49 µg/mL (≈ 13.6 µM) | – | – | Mouse weight (%) [2, 17]: +19%; colo320 (colorectal cancer cell) growth rate (%) [2, 17]: 605.35%; colo320 (colorectal cancer cell) mean tumor volume (mm^3) [2, 17]: 671.3 mm^3
